Reference: US8198236B2, “Methods and compositions for the treatment of cancer” (Washington University, priority 2007, dated 2012)

How the values were obtained:
[1] = system: Wnt signaling; experiment: TCF/LEF-luc reporter assay in Wnt-3A-treated HEK293 cells; type: cell-based; conditions: Wnt3A conditioned medium plus 500 nM, 16 hours at 37° C.
Procedure: HEK293 cells were plated into six-well plates. For each well, 0.1 μg of the TOP-FLASHTCF luciferase construct (Upstate Biotechnology) was cotransfected with 0.8 μg Mesd-expressing vector, 0.8 μg Mesd mutant-expressing vector, or empty vector. A β-galactosidase-expressing vector (Promega, Madison, Wis.) was included as an internal control for transfection efficiency. After 48 hours, cells were lysed and both luciferase and β-galactosidase activities were determined with enzyme assay kits (Promega). The luciferase activity was determined with a luminometer using the Dual Luciferase Assay system (Promega). Luciferase activity was normalized to the activity of the β-galactosidase.
In these experiments, transfected cells were treated without Wnt-3A or with Wnt-3A plus the indicated inhibitors (Mesd and/or Dkk1) for 16 hours at 37° C. Wnt signaling was measured by quantifying the luciferase activity using a live cell imaging system.

[2] = Side effects on non-tumor tissues of treated mice (H&E staining, x-ray, weight)
Procedure: Hemotoxylin and eosin (H&E) staining was performed on tumor xenograft tissue, skin and intestine harvested at the end of Mesd treatment.
FIG. 24D: H&E staining of tail vertebrae treated with PBS, Mesd or Mesd peptide.

[3] = biological target: T1, LRP6 (Homo sapiens, UniProt O75581); experiment: LRP6-mediated 125I-Mesd degradation in LRP6-transduced HT1080 cells; type: cell-based; conditions: 4 hours at 37° C.
T1 construct: expressed in transfected cells; host or cells: human HT1080 cells, retroviral vector pLNCX2
Procedure: Ligand degradation was performed using the methods as described in Li, Y., et al., J. Biol. Chem. 275: 17187-17194, 2000. Briefly, 2×10^5 cells were seeded into 12-well dishes 1 day prior to assay. Pre-warmed assay buffer (minimal Eagle's medium containing 0.6% BSA with radioligand, 0.6 ml/well) was added to cell monolayers in the absence or the presence of unlabeled 500 nM RAP or 500 nM Mesd, followed by incubation for 4 hours at 37° C. Thereafter, the medium overlying the cell monolayers was removed and proteins were precipitated by addition of BSA to 10 mg/ml and trichloroacetic acid to 20%. Degradation of radioligand was defined as the appearance of radioactive fragments in the overlying medium that were soluble in 20% trichloroacetic acid. Kinetic analysis of endocytosis LRP6-transduced HT1080 cells were plated in 12-well plates at a density of 2×10^5 cells/well and used after overnight culture. Cells were rinsed twice in ice-cold assay buffer (minimal Eagle's medium containing 0.6% BSA), and ^125I-anti-HA IgG was added at 1 nM final concentration in cold assay buffer (0.5 ml/well). The binding of ^125I-anti-HA IgG was carried out at 4° C. for 90 minutes with gentle rocking Unbound ^125I-anti-HA IgG was removed by washing cell monolayers three times with cold assay buffer. Ice-cold stop/strip solution (0.2 M acetic acid, pH 2.6, 0.1 M NaCl) was added to one set of plates without warming up and kept on ice. The remaining plates were then placed in a 37° C. water bath and 0.5 ml assay buffer prewarmed to 37° C. was quickly added to cell monolayers to initiate internalization. After each time point, the plates were quickly placed on ice and the assay buffer was replaced with cold stop/strip solution. ^125I-anti-HA IgG that remained on the cell surface was stripped by incubation of cell monolayers with cold stop/strip solution for a total of 20 minutes (0.75 ml for 10 minutes, twice) and counted. Cell monolayers were then solubilized with low-SDS lysis buffer and counted. […] The fraction of internalized ^125I-anti-HA IgG after each time point was calculated and plotted. […]

[4] = biological target: T1, LRP6; experiment: 125I-RAP binding to LRP6-transduced HT1080 cells; conditions: 500 nM unlabeled Mesd
Procedure: Cells (2×10^5) were seeded into 12-well dishes 1 day prior to assay. Ligand-binding buffer (minimal Eagle's medium containing 0.6% BSA with a different concentration of radioligand, 0.6 ml/well) was added to cell monolayers, in the absence or the presence of 500 nM unlabeled RAP or 500 nM unlabeled Mesd, followed with incubation for 0-4 hours at 4° C. Thereafter, overlying buffer containing unbound ligand was removed, and cell monolayers were washed and lysed in low-SDS lysis buffer (62.5 mM Tris-HCl pH 6.8, 0.2% SDS, 10% v/glycerol) and counted.
Receptor-associated protein (RAP) binds with high affinity to LRP, megalin, VLDLR and apoER2, and with a lower affinity to the LDLR (Bu, G., Int. Rev. Cytol. 209, 79-116. 2001). To determine whether RAP and Mesd bind to identical, overlapping, or different sites on the receptors, we performed binding and competition analysis of these two chaperones with HT1080 cells stably expressing LRP6.
In FIG. 8A, binding of ^125I-RAP (5 nM) to LRP6-transduced HT1080 cells and the control cells was carried out for 4 hours at 4° C. in the absence (total) or presence of 500 nM RAP, or 500 nM Mesd. In FIG. 8B, binding of^125I-Mesd (5 nM) to LRP6-transduced HT1080 cells was carried out for 2 hours at 4° C. in the absence (total) or presence of various concentrations of RAP or 500 nM Mesd. […]

[5] = Pharmacokinetics of 125I-labeled Mesd or Mesd peptide, intravenous or subcutaneous
Procedure: In experiments shown in FIG. 23, pharmacokinetics of Mesd peptide and Mesd were examined. FIG. 23A: Amount of Mesd in serum following a single dose of protein administration. Mice were dosed at 5, 10, 20 mg/kg of Mesd via i.p. and the serum samples were collected from individual mice at the indicated time points. The levels of Mesd in serum were quantified by comparison to Mesd pure protein with known concentrations in Western blot analysis. Values are the average of triple determinations with S.D. indicated by error bars. […] Samples were obtained by terminal bleed under anesthesia at each of the indicated time points (N=3 animals per time point). Radioactivity was measured using a gamma counter and DPM converted to mass units/mL blood using the specific activity (DPM/mass) of each test substance. Data are plotted as mass U/mL of test substance with standard deviation indicated by error bars.

T1 sequence (O75581 20-1613): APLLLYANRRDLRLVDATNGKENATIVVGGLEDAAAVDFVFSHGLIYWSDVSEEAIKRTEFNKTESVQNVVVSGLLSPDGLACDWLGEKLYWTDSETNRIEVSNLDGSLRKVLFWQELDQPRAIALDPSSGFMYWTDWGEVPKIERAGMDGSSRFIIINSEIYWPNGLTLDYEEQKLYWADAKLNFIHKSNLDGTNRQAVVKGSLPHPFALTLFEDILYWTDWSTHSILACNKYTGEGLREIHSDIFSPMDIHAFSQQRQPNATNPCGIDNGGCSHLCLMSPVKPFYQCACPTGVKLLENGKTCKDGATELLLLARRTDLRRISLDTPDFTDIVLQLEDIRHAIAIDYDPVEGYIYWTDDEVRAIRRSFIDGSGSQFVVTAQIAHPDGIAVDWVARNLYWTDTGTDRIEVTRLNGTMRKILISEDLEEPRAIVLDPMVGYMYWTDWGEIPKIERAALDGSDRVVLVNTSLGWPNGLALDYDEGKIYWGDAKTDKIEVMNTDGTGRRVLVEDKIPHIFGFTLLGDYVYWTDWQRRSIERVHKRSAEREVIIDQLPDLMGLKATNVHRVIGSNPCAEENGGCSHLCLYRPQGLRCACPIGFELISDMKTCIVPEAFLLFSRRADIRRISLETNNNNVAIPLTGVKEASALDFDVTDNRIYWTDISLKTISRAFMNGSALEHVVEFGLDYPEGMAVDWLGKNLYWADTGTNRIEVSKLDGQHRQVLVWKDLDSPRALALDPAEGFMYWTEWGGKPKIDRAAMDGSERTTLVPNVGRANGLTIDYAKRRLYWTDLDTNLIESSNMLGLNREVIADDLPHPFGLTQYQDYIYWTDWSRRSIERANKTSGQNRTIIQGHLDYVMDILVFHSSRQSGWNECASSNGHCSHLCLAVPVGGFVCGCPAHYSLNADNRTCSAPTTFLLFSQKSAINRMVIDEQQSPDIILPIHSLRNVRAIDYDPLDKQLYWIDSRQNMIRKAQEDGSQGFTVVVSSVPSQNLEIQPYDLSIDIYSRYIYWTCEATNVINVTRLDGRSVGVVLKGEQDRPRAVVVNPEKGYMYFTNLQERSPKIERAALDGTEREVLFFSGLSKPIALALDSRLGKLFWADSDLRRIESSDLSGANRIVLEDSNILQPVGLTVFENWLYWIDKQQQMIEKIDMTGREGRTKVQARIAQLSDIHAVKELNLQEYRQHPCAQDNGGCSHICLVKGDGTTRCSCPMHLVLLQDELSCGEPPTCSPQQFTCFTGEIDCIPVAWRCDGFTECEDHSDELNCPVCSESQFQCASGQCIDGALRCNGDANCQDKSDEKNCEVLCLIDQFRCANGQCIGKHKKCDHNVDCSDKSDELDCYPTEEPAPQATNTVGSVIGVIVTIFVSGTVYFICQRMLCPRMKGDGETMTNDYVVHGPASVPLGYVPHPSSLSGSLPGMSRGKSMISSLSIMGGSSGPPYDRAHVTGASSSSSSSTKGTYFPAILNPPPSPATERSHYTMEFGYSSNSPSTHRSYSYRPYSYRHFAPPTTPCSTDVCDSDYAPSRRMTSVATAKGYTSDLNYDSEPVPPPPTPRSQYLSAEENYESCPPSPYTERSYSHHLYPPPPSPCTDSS

B1: Mesd: Recombinant full-length mouse Mesd expressed in E. coli, N-terminal polyhistidine tail, lacking the signal peptide (protein)
chain: ADTPGEATPPPRKKKDIRDYNDADMARLLEQWEKDDDIEEGDLPEHKRPSAPIDFSKLDPGKPESILKMTKKGKTLMMFVTVSGNPTEKETEEITSLWQGSLFNANYDVQRFIVGSDRAIFMLRDGSYAWEIKDFLVSQDRCAEVTLEGQMYPGKGGGSKEKNKTKPEKAKKKEGDRKPRASKEDNRAGSRREDL
modifications: left off: small tags and cut ends
notes: Recombinant full-length mouse Mesd expressed in E. coli, N-terminal polyhistidine tail, lacking the signal peptide
Inhibition of Wnt signaling (luciferase activity) [1]: moderately inhibit | Adverse effect on small intestine (gross examination) ([2]; FIG. 17E): no significant adverse effect | Architecture of gastrointestinal compartments and skin (H&E) ([2]; after 10 treatments): morphologically normal | Bone lesions or outgrowths in tail vertebrae ([2]; conditions in which antitumor efficacy was achieved): no significant bone lesions or outgrowths | General health and body weight of treated mice ([2]; mouse, in vivo): grossly healthy and maintain their weights | 125I-Mesd degradation ([3]; 5 nM): 320 fmoles/mg cell protein | Inhibition of 125I-Mesd degradation ([3]; 500 nM unlabeled competitor): completely | Effect of excess unlabeled Mesd on the LRP6-dependent increase of 125I-RAP binding [4]: abolished | Bioavailability ([5]; intravenous (tail vein) or subcutaneous): 60% | Distribution into tissues ([5]; thyroid/parathyroid, liver, kidney, stomach, gastrointestinal tract): rapid and widespread
